Series [1] concerns the target RPA heterotrimer (RPA70/RPA32/RPA14), full length (UniProt P27694;P15927;P35244 1-616;1-270;1-121). In words: EMSA. For orientation: In EMSA bound probe runs differently from free probe, usually more slowly.
For series [2], the target named is RPA70 DBD-F (N-terminal domain) fused to MBP (UniProt P27694 1-120). In words: EMSA.
Sequence of RPA70 DBD-F (N-terminal domain) fused to MBP (P27694 1-120): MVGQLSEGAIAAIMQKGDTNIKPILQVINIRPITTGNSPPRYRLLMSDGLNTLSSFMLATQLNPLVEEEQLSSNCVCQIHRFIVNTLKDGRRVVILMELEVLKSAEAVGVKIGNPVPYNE

Sequence of RPA heterotrimer (RPA70/RPA32/RPA14), full length (P27694 whole entry, chain 1 of 3, the tested form may be a part): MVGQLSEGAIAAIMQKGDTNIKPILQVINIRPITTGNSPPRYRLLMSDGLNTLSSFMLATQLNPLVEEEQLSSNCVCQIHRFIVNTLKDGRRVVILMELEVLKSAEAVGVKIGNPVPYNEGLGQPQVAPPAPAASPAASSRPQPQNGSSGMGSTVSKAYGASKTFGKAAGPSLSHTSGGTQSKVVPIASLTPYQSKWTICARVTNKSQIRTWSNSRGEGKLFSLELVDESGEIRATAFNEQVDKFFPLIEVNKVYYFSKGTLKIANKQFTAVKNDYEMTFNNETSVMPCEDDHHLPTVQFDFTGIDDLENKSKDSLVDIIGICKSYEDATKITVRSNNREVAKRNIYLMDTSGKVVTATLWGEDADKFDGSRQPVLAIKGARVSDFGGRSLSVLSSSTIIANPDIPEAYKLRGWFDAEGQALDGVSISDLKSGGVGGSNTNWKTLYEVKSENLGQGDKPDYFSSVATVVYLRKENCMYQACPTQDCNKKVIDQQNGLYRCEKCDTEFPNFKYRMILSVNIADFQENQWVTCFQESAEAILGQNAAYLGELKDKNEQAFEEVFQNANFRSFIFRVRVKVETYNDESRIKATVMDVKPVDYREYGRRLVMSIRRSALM
Sequence of RPA heterotrimer (RPA70/RPA32/RPA14), full length (P15927 whole entry, chain 2 of 3, the tested form may be a part): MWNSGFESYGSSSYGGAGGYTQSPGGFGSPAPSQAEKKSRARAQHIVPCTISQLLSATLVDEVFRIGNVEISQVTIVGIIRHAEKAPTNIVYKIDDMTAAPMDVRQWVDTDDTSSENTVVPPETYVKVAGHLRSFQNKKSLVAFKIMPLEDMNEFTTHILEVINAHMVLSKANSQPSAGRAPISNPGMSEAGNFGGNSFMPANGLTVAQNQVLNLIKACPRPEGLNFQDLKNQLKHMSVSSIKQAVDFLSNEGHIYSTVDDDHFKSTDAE
Sequence of RPA heterotrimer (RPA70/RPA32/RPA14), full length (P35244 whole entry, chain 3 of 3, the tested form may be a part): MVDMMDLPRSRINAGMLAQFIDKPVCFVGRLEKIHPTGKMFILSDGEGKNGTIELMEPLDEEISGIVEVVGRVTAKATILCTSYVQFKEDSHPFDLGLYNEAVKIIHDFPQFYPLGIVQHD

B1: polyT 30mer (ssDNA)
DNA: TTTTTTTTTTTTTTTTTTTTTTTTTTTTTT
Take B1: the binding result in series [1] and in series [2] was “binds” throughout.

Values taken from publication PMC4201622.
